Measurements: patent US20080206232A1

Assays:
SREBP1c = assay: cell-based or functional assay
LXRα = assay: cell-based or functional assay

Substance | luciferase activity of the FAS promoter reporter (FAS-700 luc) in transfected H2.35 hepatoma cells (SREBP1c) [fold] | luciferase activity of 4×LXRE-luc in transfected H2.35 hepatoma cells, with LXRα/RXR and LXR ligand (LXRα) [fold] | promoter activity of ABCA1-luc in transfected H2.35 hepatoma cells (LXRα) [fold]
Flag-PGC-1β (from UniProt Q8VHJ7 1-1014) | 17 | > 240 | 2 to 3
Flag-PGC-1α |  |  | 2 to 3
